The record followed here is patent publication US20070259824A1 (TOUDAI TLO, published 2007).

Assay [1] addresses T1, CD26 in J.CD26 cell lysate (Jurkat T cells with stable expression of CD26) (UniProt P27487 1-766).
T1 construct: Whole CD26 from transfected cells, used as lysate in the GST pull-down; also called CD26 transfected Jurkat T cells
The assay is described as follows: GST pull-down from J.CD26 lysate, immunoblot with anti-CD26. (A western blot detects proteins with antibodies after separation by electrophoresis.)

Assay [2] addresses T2, recombinant soluble CD26 (rsCD26 wt) (UniProt P27487 29-766, limits assumed).
T2 construct: extracellular domain; Used free, conjugated with Texas red, or coated on latex beads; also called sCD26-TR; CD26-TR
The assay is described as follows: confocal microscopy of transfected HEK293 cells.

In assay [3] the target is T3, GFP-fused wild type CD26 (CD26 wt-GFP) on transfected HEK293 cells (UniProt P27487 1-766).
T3 construct: also called CD26-EGFP; GFP-CD26 wt; not shown: EGFP of vector pEB6-CAG-EGFP (engineered variant of Aequorea victoria GFP)
T3 sequence (P27487 whole entry, the tested form may be a part): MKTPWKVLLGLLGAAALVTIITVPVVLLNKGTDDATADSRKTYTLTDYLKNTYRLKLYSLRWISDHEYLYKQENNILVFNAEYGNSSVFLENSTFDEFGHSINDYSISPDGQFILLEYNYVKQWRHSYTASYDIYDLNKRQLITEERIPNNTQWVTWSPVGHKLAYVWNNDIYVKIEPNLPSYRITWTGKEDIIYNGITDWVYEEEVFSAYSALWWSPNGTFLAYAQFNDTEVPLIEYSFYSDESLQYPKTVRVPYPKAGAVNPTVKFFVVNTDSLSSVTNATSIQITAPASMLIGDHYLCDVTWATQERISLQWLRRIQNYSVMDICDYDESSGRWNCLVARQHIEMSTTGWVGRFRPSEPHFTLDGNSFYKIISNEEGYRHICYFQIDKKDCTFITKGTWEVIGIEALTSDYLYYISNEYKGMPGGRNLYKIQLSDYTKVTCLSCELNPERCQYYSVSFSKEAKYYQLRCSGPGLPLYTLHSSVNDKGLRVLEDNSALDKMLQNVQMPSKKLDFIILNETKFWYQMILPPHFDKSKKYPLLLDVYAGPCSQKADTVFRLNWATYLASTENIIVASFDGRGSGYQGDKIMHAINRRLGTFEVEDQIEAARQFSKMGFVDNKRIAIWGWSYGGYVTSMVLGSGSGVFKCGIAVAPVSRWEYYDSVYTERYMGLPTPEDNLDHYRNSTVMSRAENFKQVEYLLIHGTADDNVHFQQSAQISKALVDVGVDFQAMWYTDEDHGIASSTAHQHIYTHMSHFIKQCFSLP
As to the kind of experiment: confocal microscopy of transfected HEK293 cells.

Assay [4] has as its target T4, CD26 S630A-GFP on transfected HEK293 cells (UniProt P27487 1-766).
T4 construct: also called DPPIV activity-deleted mutant (S630A); not shown: EGFP of vector pEB6-CAG-EGFP
As to the kind of experiment: confocal microscopy of transfected HEK293 cells.

For assay [5], the target named is T5, CD26 on activated T cells (human, UniProt P27487 1-766).
T5 construct: whole, on cells; also called CD26 on T cells
T5 sequence (P27487 whole entry): as the sequence (P27487 whole entry, the tested form may be a part) above
As to the kind of experiment: T cell-monocyte conjugates, confocal microscopy.

Assay [6] addresses T6, GST-CD26 D1 (residues 507-766) (UniProt P27487 507-766).
T6 construct: Produced in COS-7 cells, on GSH beads; not shown: GST of mammalian vector pEBG
The assay is described as follows: GST pull-down from THP-1 lysate, immunoblot with anti-caveolin-1.

Assay [7] deals with T7, GST-CD26 D2 (residues 267-584) (UniProt P27487 267-584).
T7 construct: range 267-584; Produced in COS-7 cells, on GSH beads; not shown: GST of mammalian vector pEBG
T7 sequence (P27487 267-584): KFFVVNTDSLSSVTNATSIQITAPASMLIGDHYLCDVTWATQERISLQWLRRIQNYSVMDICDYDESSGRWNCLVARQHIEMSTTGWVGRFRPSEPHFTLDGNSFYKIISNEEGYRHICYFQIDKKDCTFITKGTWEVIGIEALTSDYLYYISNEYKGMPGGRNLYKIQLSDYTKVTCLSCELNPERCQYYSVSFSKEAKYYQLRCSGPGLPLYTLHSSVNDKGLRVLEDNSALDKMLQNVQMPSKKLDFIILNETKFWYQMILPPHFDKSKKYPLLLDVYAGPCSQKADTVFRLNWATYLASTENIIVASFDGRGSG
The assay is described as above.

Assay [8] has as its target MyD88 (in TT-loaded monocytes) (human, UniProt Q99836 1-296). The assay is described as follows: immunoprecipitation with anti-caveolin-1 pAb from TT-loaded monocytes.
Assay [9] addresses T8, IRAK-4 (in TT-loaded monocytes) (human, UniProt Q9NWZ3 1-460).
T8 sequence: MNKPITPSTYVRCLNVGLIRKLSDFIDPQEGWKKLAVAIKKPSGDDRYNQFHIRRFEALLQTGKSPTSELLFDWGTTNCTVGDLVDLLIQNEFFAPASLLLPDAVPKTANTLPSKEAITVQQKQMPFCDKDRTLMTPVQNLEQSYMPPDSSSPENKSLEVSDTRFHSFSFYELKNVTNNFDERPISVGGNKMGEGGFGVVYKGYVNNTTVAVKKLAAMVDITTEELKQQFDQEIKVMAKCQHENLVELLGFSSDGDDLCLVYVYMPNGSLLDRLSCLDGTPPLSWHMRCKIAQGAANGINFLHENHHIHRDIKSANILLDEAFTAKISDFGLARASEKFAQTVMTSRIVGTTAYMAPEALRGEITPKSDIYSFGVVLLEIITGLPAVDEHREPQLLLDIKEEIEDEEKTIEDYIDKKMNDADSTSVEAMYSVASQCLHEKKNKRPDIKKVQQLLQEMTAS
The description is as above.

For assay [10], the target named is endogenous Tollip (THP-1 cells, monocytes) (human, UniProt Q9H0E2 2-274). As to the kind of experiment: immunoprecipitation with anti-caveolin-1 pAb from TT-loaded monocytes, immunoblot with anti-Tollip.

T1 sequence (P27487 whole entry): as the sequence (P27487 whole entry, the tested form may be a part) above
T6 sequence (P27487 507-766): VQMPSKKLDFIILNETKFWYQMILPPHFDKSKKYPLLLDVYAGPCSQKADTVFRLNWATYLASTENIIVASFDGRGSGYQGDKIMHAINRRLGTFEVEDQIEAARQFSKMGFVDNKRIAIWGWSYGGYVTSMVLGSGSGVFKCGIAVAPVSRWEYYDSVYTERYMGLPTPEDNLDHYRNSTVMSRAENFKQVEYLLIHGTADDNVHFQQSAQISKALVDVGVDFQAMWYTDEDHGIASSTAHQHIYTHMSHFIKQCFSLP
Chain of MyD88 (in TT-loaded monocytes) (Q99836 whole entry): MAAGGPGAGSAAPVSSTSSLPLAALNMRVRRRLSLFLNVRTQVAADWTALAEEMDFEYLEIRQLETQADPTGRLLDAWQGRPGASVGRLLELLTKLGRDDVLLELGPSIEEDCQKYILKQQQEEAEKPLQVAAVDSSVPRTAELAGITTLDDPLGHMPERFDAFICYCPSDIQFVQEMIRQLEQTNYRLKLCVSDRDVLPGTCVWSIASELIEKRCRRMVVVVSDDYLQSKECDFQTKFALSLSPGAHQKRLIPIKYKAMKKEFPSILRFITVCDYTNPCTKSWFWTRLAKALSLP
T4 sequence (P27487 whole entry S630A): as the sequence (P27487 whole entry, the tested form may be a part) above, with S630A counted along it
T2 sequence (P27487 29-766 limits assumed): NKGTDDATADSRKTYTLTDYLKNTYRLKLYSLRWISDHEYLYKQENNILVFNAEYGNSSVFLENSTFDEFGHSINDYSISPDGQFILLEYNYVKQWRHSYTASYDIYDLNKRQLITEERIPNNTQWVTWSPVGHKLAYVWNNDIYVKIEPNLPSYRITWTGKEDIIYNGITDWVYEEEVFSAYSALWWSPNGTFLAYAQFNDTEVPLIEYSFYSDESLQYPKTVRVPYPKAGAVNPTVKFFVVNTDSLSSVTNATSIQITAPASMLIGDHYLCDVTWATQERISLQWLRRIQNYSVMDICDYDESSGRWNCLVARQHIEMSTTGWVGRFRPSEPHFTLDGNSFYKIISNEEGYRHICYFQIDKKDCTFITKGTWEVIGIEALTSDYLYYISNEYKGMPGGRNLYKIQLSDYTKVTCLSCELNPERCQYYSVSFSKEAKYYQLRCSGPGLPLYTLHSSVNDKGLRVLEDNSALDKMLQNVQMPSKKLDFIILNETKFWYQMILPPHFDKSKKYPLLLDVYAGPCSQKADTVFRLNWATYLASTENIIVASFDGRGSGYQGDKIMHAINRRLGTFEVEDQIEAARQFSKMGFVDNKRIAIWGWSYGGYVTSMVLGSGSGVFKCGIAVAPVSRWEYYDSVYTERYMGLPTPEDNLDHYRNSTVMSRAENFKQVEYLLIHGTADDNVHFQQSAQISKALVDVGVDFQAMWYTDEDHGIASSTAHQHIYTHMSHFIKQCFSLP

B1: GST-Cav-1 (102-178) (other, UniProt Q03135 102-178, looked up)
chain: LLSALFGIPMALIWGIYFAILSFLHIWAVVPCIKSFLIEIQCISRVYSIYVHTVCDPLFEAVGKIFSNVRINLQKEI
notes: range 102-178; not shown: GST of vector pGEX6p1
On to B1, for which the binding result in [1] is recorded as “no binding”.

B2: GFP-fused full-length caveolin-1 (caveolin-1-GFP) in transfected cells (other, UniProt Q03135 1-178, looked up)
chain: MSGGKYVDSEGHLYTVPIREQGNIYKPNNKAMADELSEKQVYDAHTKEIDLVNRDPKHLNDDVVKIDFEDVIAEPEGTHSFDGIWKASFTTFTVTKYWFYRLLSALFGIPMALIWGIYFAILSFLHIWAVVPCIKSFLIEIQCISRVYSIYVHTVCDPLFEAVGKIFSNVRINLQKEI
notes: Expressed in HEK293 cells (with sCD26-TR) or stably in THP-1 cells (with Tollip); also called caveolin-1-EGFP; GFP-caveolin-1; not shown: EGFP of vector pEB6-CAG-EGFP
Take B2: in assay [2], the binding result is “binds”.

B3: Texas red conjugated caveolin-1 (cav-TR) (other, UniProt Q03135 1-178, looked up)
chain: B2 chain
modifications: Texas red conjugated
notes: range 1-178; also called caveolin-1 wt recombinant protein
In the case of B3, the binding result is listed as “binds” in assay [3] and “no binding” in assay [4].

B4: caveolin-1 on the cell surface of TT-loaded monocytes (other)
chain: SGGKYVDSEGHLYTVPIREQGNIYKPNNKAMADELSEKQVYDAHTKEIDLVNRDPKHLNDDVVKIDFEDVIAEPEGTHSFDGIWKASFTTFTVTKYWFYRLLSALFGIPMALIWGIYFAILSFLHIWAVVPCIKSFLIEIQCISRVYSIYVHTVCDPLFEAVGKIFSNVRINLQKEI
notes: whole, on cells
On to B4, for which, in [5], the binding result is reported as “binds”.

B5: endogenous caveolin-1 (THP-1 cell lysate, monocyte lysate) (other, human, UniProt Q03135 2-178, looked up)
chain: B4 chain
notes: Endogenous whole protein from cell lysates
Turning to B5, the binding result in [6] was “no binding”; in assay [7] it was “no binding”; in [8] it was “no binding”; in assay [9] it was “no binding”; in assay [10], “binds”.

B6: GST-Cav-1 (1-82) (other, UniProt Q03135 1-82, looked up)
chain: MSGGKYVDSEGHLYTVPIREQGNIYKPNNKAMADELSEKQVYDAHTKEIDLVNRDPKHLNDDVVKIDFEDVIAEPEGTHSFD
notes: range 1-82; not shown: GST of vector pGEX6p1
In the case of B6, in assay [1], the binding result is on record as “no binding”.
